Measurements taken from patent US12415847B2, “ApoM-Fc fusion proteins for treating lung diseases” (Children's Medical Center Corporation, priority 2018, dated 2025).

Experiments:
S1P1 receptor [1] = target: T1, S1P1 receptor (Homo sapiens, UniProt P21453); assay: Nanobit split luciferase assay, Gi-alpha coupling; type: cell-based; details: transfected 293A cells; 1000 nM-0.3 nM S1P
T1 construct: expressed in transfected cells; host or cells: Human 293A cells, transient PEI transfection
Protocol: (§1) FIGS. 5A-5B. Nanobit analysis of Human ApoMFc-S1P, Mouse ApoMFc-S1P, or BSA-S1P (Positive Control). […] BSA-S1P is the well-established activator of the S1PR1 and it was tested whether Human ApoMFc-S1P, Mouse ApoMFc-S1P gave equivalent induction of receptor activation. Data are the means of triplicate wells with the baseline (pre-stimulation) signal subtracted from the final luciferase signal and graphs are expressed with standard deviation.
(§2) The S1P receptors are members of the G-protein coupled receptor (GPCR) superfamily. Receptor activation is characterized by immediate activation of a G-protein complex (alpha-beta-gamma) that activates multiple intracellular signaling pathways and then secondary activation of coupling to the protein beta-arrestin, which may cause receptor internalization and desensitization as well as activation of other intracellular signaling pathways. […]
(§3) There are two general forms of this assay. […] Upon activation of the GPCR, the G-Protein alpha-beta-gamma complex […] and Luciferase activity may be detected by measuring emitted light in the presence of luciferase substrate (luciferin). […] It is notable that G-Protein assay results in decreased relative fluorescence with increased receptor activation, while the Beta-arrestin coupling assay results in increased relative fluorescence with increased receptor activation. […]
Target sequence in this assay (P21453 whole entry): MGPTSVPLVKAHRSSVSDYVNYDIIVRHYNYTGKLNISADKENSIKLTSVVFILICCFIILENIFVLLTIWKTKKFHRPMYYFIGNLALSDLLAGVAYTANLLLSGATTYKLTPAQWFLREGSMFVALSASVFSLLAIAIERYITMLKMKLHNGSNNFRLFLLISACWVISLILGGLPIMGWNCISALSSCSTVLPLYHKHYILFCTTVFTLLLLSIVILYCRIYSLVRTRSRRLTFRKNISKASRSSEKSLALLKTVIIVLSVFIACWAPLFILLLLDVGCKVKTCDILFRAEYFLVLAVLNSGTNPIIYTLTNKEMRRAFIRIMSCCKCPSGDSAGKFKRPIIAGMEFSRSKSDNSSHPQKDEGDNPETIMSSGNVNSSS

S1P1 receptor [2] = target: T1, S1P1 receptor; assay: Nanobit split luciferase assay, beta-arrestin coupling; type: cell-based; details: transfected 293A cells; 1000 nM-0.3 nM S1P
Protocol: as §1, §2, §3
Target sequence in this assay (P21453 whole entry): as above
Target sequence in this assay (P49407 whole entry partner): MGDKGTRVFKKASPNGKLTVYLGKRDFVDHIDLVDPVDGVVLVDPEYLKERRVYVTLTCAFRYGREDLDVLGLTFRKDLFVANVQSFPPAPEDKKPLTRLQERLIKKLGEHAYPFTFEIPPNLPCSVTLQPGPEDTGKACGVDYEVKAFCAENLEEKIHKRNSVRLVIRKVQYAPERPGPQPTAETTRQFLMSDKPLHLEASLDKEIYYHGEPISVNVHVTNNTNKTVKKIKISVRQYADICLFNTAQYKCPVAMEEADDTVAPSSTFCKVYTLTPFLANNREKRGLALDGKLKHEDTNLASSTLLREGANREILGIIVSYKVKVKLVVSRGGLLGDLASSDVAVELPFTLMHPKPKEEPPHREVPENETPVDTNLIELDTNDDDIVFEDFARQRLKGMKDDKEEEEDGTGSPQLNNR

HUVECs = assay: Trans-endothelial electrical resistance (TEER); type: cell-based, human; details: 4 μg/well, 250 nM S1P, 6 hour time point
Protocol: FIG. 4. Human and Mouse ApoM-Fc-S1P enhanced endothelial Barrier Protection. Human ApoMFc-S1P (4 μg/well, 250 nM S1P), Mouse ApoMFc-S1P (4 μg/well, 250 nM S1P), or BSA-S1P (250 nM S1P; Positive Control) were analyzed using transepithelial/transendothelial electrical resistance (TEER). The results of TEER analysis of HUVECs at the 6 hour time point are shown. BSA-S1P is the well-established activator of the S1PR1 and it was tested whether Human ApoMFc-S1P, Mouse ApoMFc-S1P gave equivalent induction of receptor activation. All results are normalized to individual well baselines (baseline=1), expressed as the mean of triplicate wells, and Standard Deviation (S.D.) is expressed as gray vertical bars over the course of the data set. […]
0.1 ml of Human Umbilical Vascular Endothelial Cells (HUVECS; 200,000 cells/ml in EGM-2 culture medium, Lonza) were seeded into a 96 well electrical conductance chamber (ECIS Cultureware; Applied Biophysics, Inc) pre-coated with 1% Fibronectin resuspended in Saline. After overnight incubation at 37° C./5% CO2, the 96-well plate was placed on the ECIS reader (Applied Biophysics; Ztheta 96-well array station) and baseline resistance was established which represents the quality of Endothelial junction strength or Endothelial barrier function. […]

Question: For “Human ApoMFc-S1P: Human ApoM-Human IgG1 Fc (hApoM-Fc) loaded with S1P”, which “activation of Gi-alpha coupling to the S1P1 receptor” value (S1P1 receptor [1]) is on record?
Answer: equivalently activates

Question: And the “activation of beta-arrestin coupling to the S1P1 receptor” value (S1P1 receptor [2])?
Answer: equivalently activates

Question: And the “endothelial barrier protection (TEER)” value (HUVECs)?
Answer: enhance endothelial Barrier Protection
